Experimental data as given in patent US11653679B2, “High-purity steviol glycosides” (PureCircle Sdn Bhd, priority 2014, dated 2023).

B1: gi187373030_ACD03249.1: UDP-glycosyltransferase [Avena strigosa], SEQ ID NO:4 (protein, listed as Avena strigosa)
chain: MAVKDEQQSPLHILLFPFLAPGHLIPIADMAALFASRGVRCTILTTPVNAAIIRSAVDRANDAFRGSDCPAIDISVVPFPDVGLPPGVENGNALTSPADRLKFFQAVAELREPFDRFLADNHPDAVVSDSFFHWSTDAAAEHGVPRLGFLGSSMFAGSCNESTLHNNPLETAADDPDALVSLPGLPHRVELRRSQMMDPKKRPDHWALLESVNAADQKSFGEVFNSFHELEPDYVEHYQTTLGRRTWLVGPVALASKDMAGRGSTSARSPDADSCLRWLDTKQPGSVVYVSFGTLIRFSPAELHELARGLDLSGKNFVWVLGRAGPDSSEWMPQGFADLITPRGDRGFIIRGWAPQMLILNHRALGGFVTHCGWNSTLESVSAGVPMVTWPRFADQFQNEKLIVEVLKVGVSIGAKDYGSGIENHDVIRGEVIAESIGKLMGSSEESDAIQRKAKDLGAEARSAVENGGSSYNDVGRLMDELMARRSSVKVGEDIIPTNDGL
B2: gi297795735_XP_002865752.1: UDP-glucoronosyl/UDP-glucosyl transferase family protein [Arabidopsis lyrata subsp. lyrata], SEQ ID NO:7 (protein, listed as Arabidopsis lyrata)
chain: MDDKKEEVMHIAMFPWLAMGHLLPFLRLSKLLAQKGHKISFISTPRNILRLPKLPSNLSSSITFVSFPLPSISGLPPSSESSMDVPYNKQQSLKAAFDLLQPPLTEFLRLSSPDWIIYDYASHWLPSIAKELGISKAFFSLFNAATLCFMGPSSSLIEESRSTPEDFTVVPPWVPFKSTIVFRYHEVSRYVEKTDEDVTGVSDSVRFGYTIDGSDAVFVRSCPEFEPEWFSLLQDLYRKPVFPIGFLPPVIEDDDDDTTWVRIKEWLDKQRVNSVVYVSLGTEASLRREELTELALGLEKSETPFFWVLRNEPQIPDGFEERVKGRGMVHVGWVPQVKILSHESVGGFLTHCGWNSVVEGIGFGKVPIFLPVLNEQGLNTRLLQGKGLGVEVLRDERDGSFGSDSVADSVRLVMIDDAGEEIREKVKLMKGLFGNMDENIRYVDELVGFMRNDESSQLKEEEEEDDCSDDQSSEVSSETDEKELNLDLKEEKRRISVYKSLSSEFDDYVANEKMG
B3: gi115454819_NP_001051010.1: Os03g0702500 [Oryza sativa Japonica Group], SEQ ID NO:3 (protein, listed as Oryza sativa)
chain: MDDAHSSQSPLHVVIFPWLAFGHLLPCLDLAERLAARGHRVSFVSTPRNLARLPPVRPELAELVDLVALPLPRVDGLPDGAEATSDVPFDKFELHRKAFDGLAAPFSAFLDTACAGGKRPDWVLADLMHHWVALASQERGVPCAMILPCSAAVVASSAPPTESSADQREAIVRSMGTAAPSFEAKRATEEFATEGASGVSIMTRYSLTLQRSKLVAMRSCPELEPGAFTILTRFYGKPVVPFGLLPPRPDGARGVSKNGKHDAIMQWLDAQPAKSVVYVALGSEAPMSADLLRELAHGLDLAGTRFLWAMRKPAGVDADSVLPAGFLGRTGERGLVTTRWAPQVSILAHAAVCAFLTHCGWGSVVEGLQFGHPLIMLPILGDQGPNARILEGRKLGVAVPRNDEDGSFDRGGVAGAVRAVVVEEEGKTFFANARKLQEIVADREREERCIDEFVQHLTSWNELKNNSDGQYP
B4: gi222619587_EEE55719.1: hypothetical protein OsJ_04191 [Oryza sativa Japonica Group], SEQ ID NO:6 (protein, listed as Oryza sativa)
chain: MHVVMLPWLAFGHILPFAEFAKRVARQGHRVTLFSTPRNTRRLIDVPPSLAGRIRVVDIPLPRVEHLPEHAEATIDLPSNDLRPYLRRAYDEAFSRELSRLLQETGPSRPDWVLADYAAYWAPAAASRHGVPCAFLSLFGAAALCFFGPAETLQGRGPYAKTEPAHLTAVPEYVPFPTTVAFRGNEARELFKPSLIPDESGVSESYRFSQSIEGCQLVAVRSNQEFEPEWLELLGELYQKPVIPIGMFPPPPPQDVAGHEETLRWLDRQEPNSVVYAAFGSEVKLTAEQLQRIALGLEASELPFIWAFRAPPDAGDGDGLPGGFKERVNGRGVVCRGWVPQVKFLAHASVGGFLTHAGWNSIAEGLANGVRLVLLPLMFEQGLNARQLAEKKVAVEVARDEDDGSFAANDIVDALRRVMVGEEGDEFGVKVKELAKVFGDDEVNDRYVRDFLKCLSEYKMQRQG
B5: EUGT11: putative UDP-glucoronosyl and UDP-glucosyl transferase [Oryza sativa Japonica Group], from WO/2013/022989A2, SEQ ID NO:8 (protein, listed as Oryza sativa)
chain: MHVVICPLLAFGHLLPCLDLAQRLACGHRVSFVSTPRNISRLPPVRPSLAPLVSFVALPLPRVEGLPNGAESTHNVPHDRPDMVELHLRAFDGLAAPFSEFLGTACADWVMPTSSAPRQTLSSNIHRNSSRPGTPAPSGRLLCPITPHSNTLERAAEKLVRSSRQNARARSLLAFTSPPLPYRDVFRSLLGLQMGRKQLNIAHETNGRRTGTLPLNLCRWMWKQRRCGKLRPSDVEFNTSRSNEAISPIGASLVNLQSIQSPNPRAVLPIASSGVRAVFIGRARTSTPTPPHAKPARSAAPRAHRPPSSVMDSGYSSSYAAAAGMHVVICPWLAFGHLLPCLDLAQRLASRGHRVSFVSTPRNISRLPPVRPALAPLVAFVALPLPRVEGLPDGAESTNDVPHDRPDMVELHRRAFDGLAAPFSEFLGTACADWVIVDVFHHWAAAAALEHKVPCAMMLLGSAHMIASIADRRLERAETESPAAAGQGRPAAAPTFEVARMKLIRTKGSSGMSLAERFSLTLSRSSLVVGRSCVEFEPETVPLLSTLRGKPITFLGLMPPLHEGRREDGEDATVRWLDAQPAKSVVYVALGSEVPLGVEKVHELALGLELAGTRFLWALRKPTGVSDADLLPAGFEERTRGRGVVATRWVPQMSILAHAAVGAFLTHCGWNSTIEGLMFGHPLIMLPIFGDQGPNARLIEAKNAGLQVARNDGDGSFDREGVAAAIRAVAVEEESSKVFQAKAKKLQEIVADMACHERYIDGFIQQLRSYKD

Assay: Catalytic test Rebaudioside A to Rebaudioside D with in-vitro expressed UDP-glucosyltransferases (Examples 20, 21), HPLC
Type: biochemical
Conditions: 0.5 mM Rebaudioside A, 30° C., HPLC
Experimental: The prepared expression medium mix was added to the plasmid solution and the solution was allowed to incubate at 30° C. for 3 hours while mixing the mixture every 45 minutes. 5 μL of the mixture was frozen whereas the remainder was used for the catalytic test for the conversion of Rebaudioside A to Rebaudioside D.
430 μL of a reaction mixture containing 0.5 mM Rebaudioside A, 3 mM MgCl2, 50 mM phosphate buffer (pH7.2) and 2.5 mM UDP-glucose was added to a 1.5 mL sterile microtube. 52 μl of the enzyme expression medium was added and the resulting mixture was allowed to react at 30° C. for 24 hours. 125 μL samples were taken after 2 hours, 16 hours and 24 hours and added to a 115 μL of 60% methanol and 10 μL of 2 N H2SO4. The quenched sample was centrifuged at 18,000 g for 2 minutes at RT. 200 μL was transferred to an HPLC vial and analyzed.
The HPLC assay was performed as follows:
430 μL of a reaction mixture containing 0.5 mM Rebaudioside A, 3 mM MgCl2, 50 mM phosphate buffer (pH7.2) and 2.5 mM UDP-glucose was added to a 1.5 mL sterile microtube. 52 μL of the enzyme expression medium was added and the resulting mixture was allowed to react at 30° C. for 24 hours. 125 μL samples were taken after 2 hours, 16 hours and 24 hours and added to a 115 μL of 60% methanol and 10 μL of 2 N H2SO4. The quenched sample was centrifuged at 18,000 g for 2 minutes at RT. 200 μL was transferred to HPLC vial and analyzed.
(§1) The HPLC assay was performed as described in EXAMPLE 20.

Molecule | Steviol glycoside conversion in reaction mixture, Reb A [% area] | Steviol glycoside conversion in reaction mixture, Reb D [% area] | Steviol glycoside conversion in reaction mixture, Reb UNK (later identified as reb D2) [% area]
B1 | 99.4 | 0.6 | 
B2 | 95.8 | 0.28 | 3.9
B3 | 96.7 | 2.1 | 
B4 | 92.8 | 0.14 | 7.0

Same assay, conditions: in-vitro expressed enzyme

Molecule | Conversion RebA to RebD
B1 | Active
B5 | Active
B2 | Active
B3 | Active
B4 | Active

Assay: Activity of in-vivo produced enzymes for transformation of Rebaudioside A (Example 22)
Type: biochemical
Conditions: 0.5 mM, in-vivo produced enzyme lysate
Experimental: Activity tests were performed at 5 mL scale with 1,000 μL of thawed lysate for the transformation of Rebaudioside A using 0.5 mM of substrate, 2.5 mM of UDP-Glucose and 3 mM MgCl2 in 50 mM Sodium Phosphate buffer at pH 7.2. Samples were taken and analyzed by HPLC.
as §1

Molecule | Conversion after 45 hrs. [%]
B1 | 0.8
B2 | 0.0
B3 | 1.1
B4 | 2.9

Same assay, conditions: after 45 hrs.

Molecule | Reb D selectivity
B1 | 100%
B2 | Reb D Not detected
B3 | 100%
B4 | Reb D Not detected
